Measured values reported in patent publication US20240027467A1 (VIB VZW, published 2024).

Experiments:
[1] = molecular target: T1, recombinant human coagulation factor IXa (human, UniProt P00740 134-191; P00740 227-461); test: tandem NANEX: displacement of factor IXa from immobilised CA10502 by 1 mL of 2.5 mg/mL (24 µM) MegaBody CA14208; A280/A650 and SDS-PAGE
T1 construct: range 134-191;range 227-461; Fluorescently labelled with Dylight-647 for the NANEX runs; also called FIXa

mCherry [2] = test: BLI
Description: (§1) Streptavidin-coated Octet® biosensors were used to capture biotinylated Nanobodies (1 μg/mL). […] All assays were performed in Hepes 25 mM pH7.5, NaCl 150 mM supplemented with BSA 0.1% and Tween²⁰ 0.005% at room temperature.

mCherry [3] = test: BLI (OctetRed), biotinylated Nb on streptavidin sensor, mCherry 8.23-222 nM
Description: as §1

[4] = molecular target: T2, FmIH_lectin_mCherry_his (CA17337); test: NANEX column: lysate with FmlH_lectin_mCherry_his on immobilised CA16964; A280 and SDS-PAGE [D00043 FIG. 39B]
T2 construct: also called mCherry-fusion protein

GFP protein [5] = molecular target: T3, GFP protein (Aequorea victoria (Water jellyfish) …, UniProt P42212 1-238 = GFP); test: BLI
T3 construct: Purified GFP used as BLI analyte, in crystals and in NANEX; also called Green fluorescent protein
Description: (§2) Streptavidin-coated Octet® biosensors were used to capture biotinylated Nanobodies (1 μg/mL). Binding and dissociation isotherms at several GFP concentrations (1 nM to 5 μM range) were analyzed on an OctetRed (molecular devices). All assays were performed in Hepes 25 mM pH7.5, NaCl 150 mM supplemented with BSA 0.1% and Tween²⁰ 0.005% at room temperature.

GFP protein [6] = molecular target: T3, GFP protein; test: comparison of affinities told with the NANEX result
GFP protein [7] = molecular target: T3, GFP protein; test: BLI (OctetRed), biotinylated Nb on streptavidin sensor, GFP as analyte
Description: as §2

[8] = molecular target: T1, recombinant human coagulation factor IXa; test: BLI
GFP protein [9] = molecular target: T3, GFP protein; test: BLI; remark: listed apart in the source
Description: (§3) Streptavidin-coated Octet® biosensors were used to capture biotinylated Nanobodies (1 μg/mL). Binding and dissociation isotherms at several GFP concentrations (8 nM to 500 nM range) were analyzed on an OctetRed (molecular devices). All assays were performed in Hepes 25 mM pH7.5, NaCl 150 mM supplemented with BSA 0.1% and Tween²⁰ 0.005% at room temperature.

GFP protein [10] = molecular target: T3, GFP protein; test: BLI (OctetRed), biotinylated Nb on streptavidin sensor, GFP 8-500 nM
Description: as §3

[11] = molecular target: T4, GST (Glutathione S-transferase) (Schistosoma japonicum (Blood fluke), UniProt P08515 1-218 = GST); test: BLI
Description: as §1

[12] = molecular target: T4, GST (Glutathione S-transferase); test: BLI (OctetRed), biotinylated Nb on streptavidin sensor, GST 63-1667 nM
Description: as §1

[13] = molecular target: T5, SMT3 (YDR510W), ubiquitin-like protein SMT3 (yeast); test: BLI
T5 construct: also called yeast SUMO protein
T5 chain: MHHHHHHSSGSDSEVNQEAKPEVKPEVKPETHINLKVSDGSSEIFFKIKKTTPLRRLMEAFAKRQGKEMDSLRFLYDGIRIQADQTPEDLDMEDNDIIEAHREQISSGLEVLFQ
Description: (§4) Streptavidin-coated Octet® biosensors were used to capture biotinylated Nanobodies (1 μg/mL). Binding and dissociation isotherms at several SMT3 concentrations (10 nM to 500 nM range) were analyzed on an OctetRed (molecular devices). All assays were performed in Hepes 25 mM pH7.5, NaCl 150 mM supplemented with BSA 0.1% and Tween²⁰ 0.005% at room temperature.

[14] = molecular target: T5, SMT3 (YDR510W), ubiquitin-like protein …; test: BLI (OctetRed), biotinylated Nb on streptavidin sensor, SMT3 10-500 nM
Description: as §4

T1 sequence (P00740 134-191 limits assumed, form in doubt, chain 1 of 2): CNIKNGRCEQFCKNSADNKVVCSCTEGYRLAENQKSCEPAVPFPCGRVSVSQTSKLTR
T1 sequence (P00740 227-461 limits assumed, form in doubt, chain 2 of 2): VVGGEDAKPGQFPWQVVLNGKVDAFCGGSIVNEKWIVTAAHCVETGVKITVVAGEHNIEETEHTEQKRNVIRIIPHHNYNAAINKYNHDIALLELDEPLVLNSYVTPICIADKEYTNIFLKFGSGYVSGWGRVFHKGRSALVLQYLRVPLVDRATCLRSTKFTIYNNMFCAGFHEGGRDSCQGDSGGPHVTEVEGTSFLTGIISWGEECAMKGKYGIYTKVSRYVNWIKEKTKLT

B1: CA14208 FIXa-specific MegaBody (Stripper2; C-term. 6xHis+EPEA) (other)
chain: QVQLVESGGGLVYKEETQSGLNNYARVVEKGQYDSLEIPAQVAASWESGRDDAAVFGFIDKEQLDKYVANGGKRSDWTVKFAENRSQDGTLLGYSLLQESVDQASYMYSDNHYLAEMATILGKPEEAKRYRQLAQQLADYINTCMFDPTTQFYYDVRIEDKPLANGCAGKPIVERGKGPEGWSPLFNGAATQANADAVVKVMLDPKEFNTFVPLGTAALTNPAFGADIYWRGRVWVDQFWFGLKGMERYGYRDDALKLADTFFRHAKGLTADGPIQENYNPLTGAQQGAPNFSWSAAHLYMLYNDFFRKQASGGGSGGGGSGGGGSGNADNYKNVINRTGAPQYMKDYDYDDHQRFNPFFDLGAWHGHLLPDGPNTMGGFPGVALLTEEYINFMASNFDRLTVWQDGKKVDFTLEAYSIPGALVQKLTAKDVQVEMTLRFATPRTSLLETKITSNKPLDLVWDGELLEKLEAKEGKPLSDKTIAGEYPDYQRKISATRDGLKVTFGKVRATWDLLTSGESEYQVHKSLPVQTEINGNRFTSKAHINGSTTLYTTYSHLLTAQEVSKEQMQIRDILARPAFYLTASQQRWEEYLKKGLTNPDATPEQTRVAVKAIETLNGNWRSPGGAVKFNTVTPSVTGRWFSGNQTWPWDTWKQAFAMAHFNPDIAKENIRAVFSWQIQPGDSVRPQDVGFVPDLIAWNLSPERGGDGGNWNERNTKPSLAAWSVMEVYNVTQDKTWVAEMYPKLVAYHDWWLRNRDHNGNGVPEYGATRDKAHNTESGEMLFTVKKDSLRLSCATSGIGFSIYSMGWYRQAPGKERELVASIAGNEDKDYVESVKGRFTISRDYAKNTLYLEMSGLKFEDTAMYYCAAGLRRGVSLTPYYWGQGTQVTVSSHHHHHHEPEA
notes: Functionalized Nanobody derived from CA10309; also called MegaBody MbCA10309^YgjK; MbNbFIXa^cHopQ
[1]
  binding result: binds

B2: CA16964 mCherry Nanobody trapper (including C-terminal 6xHis+EPEA tag) (VHH)
VHH: QVQLVESGGGLVQAGGSLRLSCAASGRDFSFDGMGWFRQAPGKEREFVAAISWSGLRIGYSDSVKGRFTISRDNAETTVHLQMNSLKPEDTAVYYCATGSHATTKAQLYDYEYWGQGTQVTVSS
modifications: biotinylated for BLI
notes: also called Nb CA16964
mCherry [2]
  Half time ratio (relative to CA17302): 4.27 fold
  KD ratio (relative to CA17302): 3.86 fold
mCherry [3]
  Kd: 6.53 nM
  koff: 0.00436 s⁻¹
  kon: 694000 M⁻¹ s⁻¹
[4]
  binding result: binds

B3: CA15818 GFP-NbF103A (C-term. 6xHis + EPEA) (VHH)
VHH: QVQLVESGGGLVQAGGSLRLSCAASGRTFSTAAMGWFRQAPGKERDFVAGIYWTVGSTYYADSAKGRFTISRDNAKNTVYLQMDSLKPEDTAVYYCAARRRGATLAPTRANEYDYWGQGTQVTVSS
modifications: biotinylated for BLI
notes: F103A mutant of CA12760; also called Nb CA15818
GFP protein [5]
  Half-time ratio (relative to the wt Nb CA12760): 9 fold
  KD ratio (relative to the wt Nb CA12760): 30 fold
GFP protein [6]
  affinity, fold higher than the trapper CA15816: 2 fold
GFP protein [7]
  Kd: 1.5 nM
  koff: 0.00029 s⁻¹

B4: CA15861 GFP-NbT54A/V55A/F103A (C-term. 6xHis + EPEA) (VHH)
VHH: QVQLVESGGGLVQAGGSLRLSCAASGRTFSTAAMGWFRQAPGKERDFVAGIYWAAGSTYYADSAKGRFTISRDNAKNTVYLQMDSLKPEDTAVYYCAARRRGATLAPTRANEYDYWGQGTQVTVSS
modifications: biotinylated for BLI
notes: T54A/V55A/F103A mutant of CA12760; also called Nb CA15861
GFP protein [5]
  Half-time ratio (relative to the wt Nb CA12760): 1400 fold
  KD ratio (relative to the wt Nb CA12760): 2000 fold
GFP protein [6]
  affinity, fold lower than the trapper CA15816: ~100 fold
GFP protein [7]
  Kd: 111 nM
  koff: 0.0458 s⁻¹

B5: CA11138 FIXa-specific Nb (C-term. 6xHis+EPEA) (VHH)
VHH: QVQLVESGGGLVQAGGSLRLSCAASERTASNYVMGWFRQAPGKEREFVAFISRTGGSTYYADSVKGRFTVSRDGAKNTVYLQMNTMKPEDTAVYYCAASLYIRNYYEGTNYAYWGQGTQVTVSS
notes: also called trapper1
[8]
  Kd: 141 nM
  koff: 0.0042 s⁻¹
  kon: 34000 M⁻¹ s⁻¹

B6: CA10304 FIXa-specific Nb (C-term. 6xHis+EPEA) (VHH)
VHH: QVQLVESGGGLVQAGGSLKLSCAASERTFSGTVMGWFRQPPGKEREFVGDISWSGSITDYADSVKGRFTISRDNAKNTMYLQMDSLKPEDTAVYYCAARVGGYSYIMSRSPADFGSWGQGTQVTVSS
notes: also called stripper1
[8]
  Kd: 46 nM
  koff: 0.0035 s⁻¹
  kon: 88000 M⁻¹ s⁻¹

B7: CA10502 FIXa-specific Nb (Trapper2; C-term. 6xHis+EPEA) (VHH)
VHH: QVQLQESGGGLVQAGGSLRLSCAASGRTSRVYGVGWFRQAPGKERELVASISTSGSVTNVADSVKGRFTISRDNAKTTVYLQMNSLKPEDTALYYCAADPHGRPYGWGQGTQVTVSS
[8]
  Kd: 74 nM
  koff: 0.004 s⁻¹
  kon: 70000 M⁻¹ s⁻¹

B8: CA10309 FIXa-specific Nb (Stripper2; C-term. 6xHis+EPEA) (VHH)
VHH: QVQLVESGGGLVQAGGSLRLSCATSGIGFSIYSMGWYRQAPGKERELVASIAGNEDKDYVESVKGRFTISRDYAKNTLYLEMSGLKFEDTAMYYCAAGLRRGVSLTPYYWGQGTQVTVSS
[8]
  Kd: 21 nM
  koff: 0.00073 s⁻¹
  kon: 62000 M⁻¹ s⁻¹

B9: CA16047 second GFP Nanobody stripper (including C-terminal 6xHis+EPEA tag) (VHH)
VHH: QVQLQESGGGLVQAGGSLRLSCAASGFTFDGYAIGWFRQAPGKEREGVSCISSSDGSTYYADSVKGRFTISSDNAKNTVYLQMNSLKPEDTAVYYCVAAWSPSTGCGSYYVQRPPGYDYWGQGTQVTVSS
modifications: biotinylated for BLI
notes: also called Nb CA16047
GFP protein [9]
  Half time ratio (relative to wt): 1 fold
  KD ratio (relative to wt): 1 fold
GFP protein [10]
  Kd: 6.15 nM
  koff: 0.00098 s⁻¹
  kon: 234000 M⁻¹ s⁻¹

B10: CA16695 second GFP Nanobody trapper (Y119F) (including C-terminal 6xHis+EPEA tag) (VHH)
VHH: QVQLQESGGGLVQAGGSLRLSCAASGFTFDGYAIGWFRQAPGKEREGVSCISSSDGSTYYADSVKGRFTISSDNAKNTVYLQMNSLKPEDTAVYYCVAAWSPSTGCGSYYVQRPPGYDFWGQGTQVTVSS
modifications: biotinylated for BLI
notes: Y119F mutant of CA16047; also called Nb CA16695
GFP protein [9]
  Half time ratio (relative to wt CA16047): 1.78 fold
  KD ratio (relative to wt CA16047): 1.37 fold
GFP protein [10]
  Kd: 8.53 nM
  koff: 0.00167 s⁻¹
  kon: 200000 M⁻¹ s⁻¹

B11: CA16239 GST Nanobody stripper (including C-terminal 6xHis+EPEA tag) (VHH)
VHH: QVQLVESGGGLVQAGGSLRLSCAASERTFSTYNMAWFRQAPGKEREFVAVISWNGGTTNSADSVKGRFTISRDNAKNTVYLQMNSLKPEDTAVYYCAARRVPYLSGTRYYTGEVDYDTWGQGTQVTVSS
modifications: biotinylated for BLI
[11]
  Half time ratio (relative to wt): 1 fold
  KD ratio (relative to wt): 1 fold
[12]
  Kd: 4.86 nM
  koff: 0.00309 s⁻¹
  kon: 720000 M⁻¹ s⁻¹

B12: CA16240 GST Nanobody trapper (Y109A) (including C-terminal 6xHis+EPEA tag) (VHH)
VHH: QVQLVESGGGLVQAGGSLRLSCAASERTFSTYNMAWFRQAPGKEREFVAVISWNGGTTNSADSVKGRFTISRDNAKNTVYLQMNSLKPEDTAVYYCAARRVPYLSGTRAYTGEVDYDTWGQGTQVTVSS
modifications: biotinylated for BLI
notes: Y109A mutant of CA16239
[11]
  Half time ratio (relative to wt CA16239): 84 fold
  KD ratio (relative to wt CA16239): 136 fold
[12]
  Kd: 659 nM
  koff: 0.251 s⁻¹
  kon: 512000 M⁻¹ s⁻¹

B13: CA15839 SMT3 Nanobody stripper (including C-terminal 6xHis+EPEA tag) (VHH)
VHH: QVQLVESGGGSAQTGGSLTLSCTASGSIVSMNSMGWFRRAPWKGREWLGDIGRDGRTSYASSVVGRFHISRDEAKNTVYLQMTRLKPEDAAMYYCAAVPFGDDDVGEWEYWGQGTQVTVSS
modifications: biotinylated for BLI
[13]
  Half time ratio (relative to wt): 1 fold
  KD ratio (relative to wt): 1 fold
[14]
  Kd: 6.67 nM
  koff: 0.00212 s⁻¹
  kon: 318000 M⁻¹ s⁻¹

B14: CA16687 SMT3 Nanobody trapper (D50A) (including C-terminal 6xHis+EPEA tag) (VHH)
VHH: QVQLVESGGGSAQTGGSLTLSCTASGSIVSMNSMGWFRRAPWKGREWLGAIGRDGRTSYASSVVGRFHISRDEAKNTVYLQMTRLKPEDAAMYYCAAVPFGDDDVGEWEYWGQGTQVTVSS
modifications: biotinylated for BLI
[13]
  Half time ratio (relative to wt CA15839): 3.75 fold
  KD ratio (relative to wt CA15839): 4.34 fold
[14]
  Kd: 29 nM
  koff: 0.00797 s⁻¹
  kon: 387000 M⁻¹ s⁻¹
